Laboratory results reported in publication PMC4118869 (PLoS ONE, 2014).
Numbering of substitutions follows the chain as printed.

B1: R2a-B9 (VHH)
VHH: QVQLVESGGGLVQPGGSLRLSCAASGSAFSINAMGWYRQAPGEEREFVAAITAGGNTYYADSAKARFTISRDNAKNMLYLQMNSLKPEDTAMYYCAATKAFGIATITADYELWGQGTQVTVSS
notes: source: E. coli WK6 periplasm, purified (Talon IMAC, Superdex 75 SEC)
B2: R1a-G5 (VHH)
VHH: QLQLVESGGGLVQPGGSLRLSCAASGSISRIVTMGWYRQASGKERELVAVIGNYGNTNYADSVKGRFTVSRDNAKDTAYLQMNGLNVEDTAIYYCKTSTTTPPYEYWGQGTQVTVSS
notes: as for B1
B3: R1a-F4 (VHH)
VHH: B2 VHH with L2V, A40G, S41P, G84N, I92M, T97C, Y104H, Y106F
notes: as for B1
B4: R1a-G6 (VHH)
VHH: QVQLVESGGGLVQSGGSLRLSCAASGSMSRIITMGWYRQAPGMERELVAVIGNNDNTVYGDSVQGRFTVSRDNAKNTAYLQMNSLNAEDTAMYYCKISTLTPPHEYWGQGTQVTVSS
notes: as for B1
B5: R1a-F5 (VHH)
VHH: QLQLVESGGGLVQVGGSLRLSCAASGFPFDGYAIAWFRQAPGKEREGVSCRASDGNTYYAESLKGRLTMSTDNAKNTVYLQMNSLKPEDTAVYYCAAASWVASLWSPSEYDYWGQGTQVTVSS
notes: as for B1
B6: R2a-E8 (VHH)
VHH: QLQLVESGGGLVQPGGSLRLSCTASGDIFVMYMIDWYRQAPGKQRELVASIDGRGTPMYADSVKGRFTISRDNAKNTVYLQMNSLKPEDTAVYSCHAKSPLVDNEYWGQGTQVTVSS
notes: as for B1
B7: R2a-G9 (VHH)
VHH: QVQLVESGGGLVQPGGSLRLSCAASDNIFSFYTMGWYRQSPGKERELVAVIGNGGNTNYADSVKGRFTISRDNGKNKAHLQMNSLKPEDTAVYYCKASGPGGVEVWGQGTQVTVSS
notes: as for B1
B8: R1a-E5 (VHH)
VHH: QLQLVESGGGLVQPGGSLRLSCTASGFSLDNYAIGWFRRAPGEEREGVSFITSTSAVTKYADSVKGRFTISRDNAKNTVYLQMTSLKPEDTAVYYCAGTRWVPTMKADEYNYWGQGTQVTVSS
notes: as for B1
B9: R2a-H9 (VHH)
VHH: QVQLVESGGGLVQPGGSLRLSCAASTNIASFYTMGWYRQTPGQQRDVVAVIGNGGNTNYADSVKGRFTISRDGAKNTAHLQMNSLKPEDTDVYYCKASGPGGVILWGQGTQVTVSS
notes: as for B1
B10: R2a-F9 (VHH)
VHH: QVQLVESGGGLVQPGGSLRLSCSASGSISSIVTMGWYRQAPGKERELVAVIGNYGNTNYADSVKGRFTVSRDNAKNTVYLQMNSLNVEDTAMYVCKFSSTVAPHEYWGQGTQVTVSS
notes: as for B1
B11: R1a-E6 (VHH)
VHH: QVQLVESGGGLVQPGGSLRLSCAASGFTLGAYAIAWFRQAPGKEREGVSCISPSDSFTEYGDSVKGRFTVSRDNAKNTVYLQMNSLQPEDTAVYYCAADPVCTAGWYRPSRFDLWGQGTQVTVSS
notes: as for B1
B12: R1a-C5 (VHH)
VHH: QVQLVESGGGLVQPGGSLRLSCAASNDIFSFYTMGWYLQAIGKQREPVAVIGNGGNTNYAESVKGRFTISRDGAKNTAYLQMNSLKPEDTAVYYCMASGPGGLNVWGQGTQVTVSS
notes: as for B1

What follows are binders tested against recombinant H5-HA, A/Vietnam/1203/2004 (H5N1) (Influenza A virus A/Vietnam/1203/2004 …, UniProt Q5EP31, strain) (assay: SPR). Conditions: both partners purified.

Binder | binding result
B1 | no binding
B2 | no binding
B3 | no binding
B4 | no binding
B5 | no binding
B6 | no binding
B7 | no binding
B8 | no binding
B9 | no binding
B10 | no binding
B11 | no binding

These binders were tested against T1, recombinant H2-HA, A/Japan/305/57 (H2N2) (Influenza A virus A/Japan/305/1957 …, UniProt P03451, strain) (assay: SPR). Conditions: both partners purified.
T1 construct: source: bought: E-Enzymes (Protein Sciences in the SPR methods)

Binder | binding result
B1 | no binding
B2 | no binding
B3 | no binding
B4 | no binding
B5 | no binding
B6 | no binding
B7 | no binding
B8 | no binding
B9 | no binding
B10 | no binding
B11 | no binding

The binders below were run against recombinant H9-HA, A/HongKong/1073/99 (H9N2) (Influenza A virus A/Hong Kong/1073/99 …, UniProt Q9ICY5, strain) (assay: SPR). Conditions: both partners purified.

Binder | binding result
B1 | no binding
B2 | no binding
B3 | no binding
B4 | no binding
B5 | no binding
B6 | no binding
B7 | no binding
B8 | no binding
B9 | no binding
B10 | no binding
B11 | no binding

What follows are binders tested against recombinant H1-HA (D18-I530), A/California/06/2009 (H1N1)pdm09 (Influenza A virus A/California/06/2009 …, UniProt C3W5S1, strain) (assay: SPR). Conditions: both partners purified.

Binder | Kd | koff | kon
B12 | 37.6 nM | 0.0206 s⁻¹ | 548000 M⁻¹ s⁻¹
B1 | 0.16 nM | 4.94e-05 s⁻¹ | 312000 M⁻¹ s⁻¹
B2 | 5.85 nM | 0.00504 s⁻¹ | 862000 M⁻¹ s⁻¹
B3 | 6.46 nM | 0.0022 s⁻¹ | 340000 M⁻¹ s⁻¹
B4 | 4.83 nM | 0.000355 s⁻¹ | 73800 M⁻¹ s⁻¹
B5 | 10 nM | 0.000414 s⁻¹ | 40200 M⁻¹ s⁻¹
B6 | 0.79 nM | 0.000148 s⁻¹ | 187000 M⁻¹ s⁻¹
B7 | 22.1 nM | 0.00392 s⁻¹ | 177000 M⁻¹ s⁻¹
B8 | 0.79 nM | 7.61e-05 s⁻¹ | 97600 M⁻¹ s⁻¹
B9 | 2.77 nM | 0.000384 s⁻¹ | 139000 M⁻¹ s⁻¹
B10 | 78.8 nM | 0.065 s⁻¹ | 825000 M⁻¹ s⁻¹
B11 | 9.97 nM | 0.000151 s⁻¹ | 15100 M⁻¹ s⁻¹

What follows are binders tested against phage displayed HA gene fragment D363-G478 (Influenza A virus A/California/07/2009 …, UniProt C3W5X2) (assay: ELISA). Conditions: both partners purified.

Binder | binding result
B1 | no binding
B2 | no binding
B3 | no binding
B4 | no binding
B5 | no binding
B6 | no binding
B8 | no binding
B10 | no binding
B11 | no binding

Each binder was assayed against phage displayed HA gene fragment L193-K225 (Influenza A virus A/California/07/2009 …, UniProt C3W5X2) (assay: ELISA). Conditions: both partners purified.

Binder | binding result
B12 | binds
B1 | no binding
B2 | no binding
B3 | no binding
B4 | no binding
B5 | no binding
B6 | no binding
B7 | no binding
B8 | no binding
B9 | no binding
B10 | no binding
B11 | no binding

The binders below were run against phage displayed HA gene fragment P66-I282 (Influenza A virus A/California/07/2009 …, UniProt C3W5X2) (assay: ELISA). Conditions: both partners purified.

Binder | binding result
B12 | binds
B1 | no binding
B2 | binds
B3 | binds
B4 | binds
B5 | binds
B6 | no binding
B7 | binds
B8 | no binding
B9 | binds
B10 | binds
B11 | binds

The binders below were run against hemagglutinin of A/California/07/2009 (H1N1)pdm09, in the influenza virus antigen standard (Influenza A virus A/California/07/2009 …, UniProt C3W5X2, strain) (assay: ELISA). Conditions: one partner purified.

Binder | binding result
B12 | binds
B1 | binds
B2 | binds
B3 | binds
B4 | binds
B5 | binds
B6 | binds
B7 | binds
B8 | binds
B9 | binds
B10 | binds
B11 | binds

Each binder was assayed against hemagglutinin of A/Brisbane/10/2007 (H3N2), in the influenza virus antigen standard (Influenza A virus A/Brisbane/10/2007 …, UniProt A8W8K8, strain) (assay: ELISA). Conditions: one partner purified.

Binder | binding result
B12 | no binding
B1 | no binding
B2 | no binding
B3 | no binding
B4 | no binding
B5 | no binding
B6 | no binding
B7 | no binding
B8 | no binding
B9 | no binding
B10 | no binding
B11 | no binding

These binders were tested against T2, recombinant H3-HA, A/Brisbane/10/2007 (H3N2) (Influenza A virus A/Brisbane/10/2007 …, UniProt A8W8K8, strain) (assay: SPR; data not shown: sdAbs on immobilised recombinant H3-HA and H7-HA). Conditions: both partners purified.
T2 construct: source: bought: Protein Sciences

Binder | binding result
B12 | no binding
B1 | no binding
B2 | no binding
B3 | no binding
B4 | no binding
B5 | no binding
B6 | no binding
B7 | no binding
B8 | no binding
B9 | no binding
B10 | no binding
B11 | no binding

These binders were tested against T3, recombinant H7-HA, A/Netherlands/219/2003 (H7N7) (Influenza A virus …, UniProt Q6VMK1) in the same assay as above. Conditions: both partners purified.
T3 construct: source: bought: Protein Sciences

Binder | binding result
B12 | no binding
B1 | no binding
B2 | no binding
B3 | no binding
B4 | no binding
B5 | no binding
B6 | no binding
B7 | no binding
B8 | no binding
B9 | no binding
B10 | no binding
B11 | no binding

Each binder was assayed against recombinant HA1 domain (D18-R344), A/California/06/2009 (H1N1)pdm09 (Influenza A virus A/California/06/2009 …, UniProt C3W5S1, strain) (assay: SPR). Conditions: both partners purified.

Binder | Kd
B12 | 38.4 nM
B2 | 15.6 nM
B3 | 4.74 nM
B4 | 4.62 nM
B5 | 6.06 nM
B7 | 68.7 nM
B9 | 468 nM
B10 | 78.8 nM
B11 | 36 nM
